T1: mFcγRIIb (Mus musculus, UniProt P08101)
T1 construct: extracellular region, C-terminal His- and GST-tag; also called mouse FcγRII
T1 sequence (receptor extracellular region, looked up): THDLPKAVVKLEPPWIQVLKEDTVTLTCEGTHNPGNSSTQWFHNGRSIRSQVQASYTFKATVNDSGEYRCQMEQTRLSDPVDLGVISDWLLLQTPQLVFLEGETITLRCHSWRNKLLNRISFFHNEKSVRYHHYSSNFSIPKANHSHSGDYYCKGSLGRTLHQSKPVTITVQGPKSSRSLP

T2: mFcγRIV
T2 construct: also called mouse FcγRIV; not shown: C-terminal His and GST tags (named only on our card)
T2 chain: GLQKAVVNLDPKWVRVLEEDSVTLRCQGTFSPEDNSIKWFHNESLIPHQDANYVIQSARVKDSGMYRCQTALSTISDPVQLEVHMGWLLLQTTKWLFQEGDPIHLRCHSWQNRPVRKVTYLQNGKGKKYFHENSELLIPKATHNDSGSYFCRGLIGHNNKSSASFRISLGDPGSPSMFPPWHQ

T3: cynoFcγRIIb (Macaca fascicularis, UniProt A0A140HDP4)
T3 construct: extracellular region, C-terminal His- and GST-tag; also called cynomolgus monkey FcγRIIb
T3 sequence (receptor extracellular region): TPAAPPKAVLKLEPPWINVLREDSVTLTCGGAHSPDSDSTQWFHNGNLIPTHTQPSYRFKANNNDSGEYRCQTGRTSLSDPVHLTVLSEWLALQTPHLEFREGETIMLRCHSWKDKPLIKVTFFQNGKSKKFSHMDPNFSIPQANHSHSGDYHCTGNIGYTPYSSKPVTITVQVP

T4: human FcγRIIb receptor protein (R&D Systems) (human, UniProt P31994 46-217)
T4 construct: Bought protein injected over captured antibody in Biacore; also called CD32b
T4 sequence (looked up): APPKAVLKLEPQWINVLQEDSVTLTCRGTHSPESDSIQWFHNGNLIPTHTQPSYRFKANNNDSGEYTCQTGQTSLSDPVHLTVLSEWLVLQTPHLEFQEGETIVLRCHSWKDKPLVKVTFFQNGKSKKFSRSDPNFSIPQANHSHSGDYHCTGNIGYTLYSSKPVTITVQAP

T5: human FcγRIIa (131R), His- and GST-tagged (human, UniProt P12318 34-217)
T5 construct: Expressed in HEK293T cells, purified by nickel chromatography; also called R131 FcγRIIa; not shown: 6xHis and GST tags of the pTT5 vector
T5 sequence (looked up): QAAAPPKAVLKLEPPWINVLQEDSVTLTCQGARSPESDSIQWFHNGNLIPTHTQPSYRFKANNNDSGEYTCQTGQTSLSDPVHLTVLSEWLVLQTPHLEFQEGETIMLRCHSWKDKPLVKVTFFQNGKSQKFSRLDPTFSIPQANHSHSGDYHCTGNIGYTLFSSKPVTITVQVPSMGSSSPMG

T6: human FcγRIIa (131H), His- and GST-tagged (human, UniProt P12318 34-217)
T6 construct: also called H131 FcγRIIa; HIIa; not shown: 6xHis and GST tags of the pTT5 vector
T6 sequence (looked up): T5 sequence (looked up) with R134H

B1: G236D (antibody, human IgG1, kappa)
heavy: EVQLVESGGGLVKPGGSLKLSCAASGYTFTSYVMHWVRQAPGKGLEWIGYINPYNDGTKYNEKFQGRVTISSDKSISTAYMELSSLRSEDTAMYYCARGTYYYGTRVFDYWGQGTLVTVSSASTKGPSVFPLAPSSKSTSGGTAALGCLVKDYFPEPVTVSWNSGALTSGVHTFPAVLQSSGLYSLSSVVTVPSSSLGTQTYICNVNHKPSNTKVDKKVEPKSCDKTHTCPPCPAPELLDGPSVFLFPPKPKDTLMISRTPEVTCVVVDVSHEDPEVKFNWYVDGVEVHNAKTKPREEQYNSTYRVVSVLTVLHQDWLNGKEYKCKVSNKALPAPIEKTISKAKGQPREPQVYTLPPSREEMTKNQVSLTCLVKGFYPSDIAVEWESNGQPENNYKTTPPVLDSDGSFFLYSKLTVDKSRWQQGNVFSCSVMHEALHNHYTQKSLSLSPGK
light: DIVMTQSPATLSLSPGERATLSCRSSKSLQNVNGNTYLYWFQQKPGQSPQLLIYRMSNLNSGVPDRFSGSGSGTEFTLTISSLEPEDFAVYYCMQHLEYPITFGAGTKLEIKRTVAAPSVFIFPPSDEQLKSGTASVVCLLNNFYPREAKVQWKVDNALQSGNSQESVTEQDSKDSTYSLSSTLTLSKADYEKHKVYACEVTHQGLSSPVTKSFNRGEC
notes: HuAM4G7 anti-CD19 IgG1 (m1) with this Fc substitution, EU index; copies: 2 + 2
B2: V266D (antibody, human IgG1, kappa)
heavy: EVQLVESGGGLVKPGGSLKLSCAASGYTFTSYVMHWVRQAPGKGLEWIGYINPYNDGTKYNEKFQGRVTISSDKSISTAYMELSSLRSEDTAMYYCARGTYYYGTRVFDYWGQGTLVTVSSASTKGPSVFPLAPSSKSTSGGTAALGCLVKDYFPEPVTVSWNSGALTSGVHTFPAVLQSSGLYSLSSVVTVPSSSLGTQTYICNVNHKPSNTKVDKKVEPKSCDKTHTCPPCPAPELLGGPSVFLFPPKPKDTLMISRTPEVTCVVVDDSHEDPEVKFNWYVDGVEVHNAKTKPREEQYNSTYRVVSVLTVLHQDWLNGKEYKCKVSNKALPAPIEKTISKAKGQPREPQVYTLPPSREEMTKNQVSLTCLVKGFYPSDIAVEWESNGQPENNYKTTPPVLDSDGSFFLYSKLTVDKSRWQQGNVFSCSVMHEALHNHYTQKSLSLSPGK
light: B1 light
notes: as for B1
B3: G237A (antibody, human IgG1, kappa)
heavy: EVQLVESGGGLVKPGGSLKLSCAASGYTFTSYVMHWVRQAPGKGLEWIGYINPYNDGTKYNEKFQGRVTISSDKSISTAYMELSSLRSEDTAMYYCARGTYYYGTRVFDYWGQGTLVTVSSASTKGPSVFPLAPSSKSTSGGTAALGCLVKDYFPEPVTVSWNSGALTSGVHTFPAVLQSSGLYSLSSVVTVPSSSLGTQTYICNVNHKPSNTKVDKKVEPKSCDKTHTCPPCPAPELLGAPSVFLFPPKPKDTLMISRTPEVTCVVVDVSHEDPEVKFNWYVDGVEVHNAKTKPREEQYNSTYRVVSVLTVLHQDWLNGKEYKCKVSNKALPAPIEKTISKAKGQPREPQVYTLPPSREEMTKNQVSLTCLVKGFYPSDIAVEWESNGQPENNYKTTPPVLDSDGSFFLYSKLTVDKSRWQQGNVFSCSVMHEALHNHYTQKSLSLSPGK
light: B1 light
notes: as for B1
B4: anti-CD19 antibody HuAM4G7 IgG1 G236D/S267E (antibody)
heavy: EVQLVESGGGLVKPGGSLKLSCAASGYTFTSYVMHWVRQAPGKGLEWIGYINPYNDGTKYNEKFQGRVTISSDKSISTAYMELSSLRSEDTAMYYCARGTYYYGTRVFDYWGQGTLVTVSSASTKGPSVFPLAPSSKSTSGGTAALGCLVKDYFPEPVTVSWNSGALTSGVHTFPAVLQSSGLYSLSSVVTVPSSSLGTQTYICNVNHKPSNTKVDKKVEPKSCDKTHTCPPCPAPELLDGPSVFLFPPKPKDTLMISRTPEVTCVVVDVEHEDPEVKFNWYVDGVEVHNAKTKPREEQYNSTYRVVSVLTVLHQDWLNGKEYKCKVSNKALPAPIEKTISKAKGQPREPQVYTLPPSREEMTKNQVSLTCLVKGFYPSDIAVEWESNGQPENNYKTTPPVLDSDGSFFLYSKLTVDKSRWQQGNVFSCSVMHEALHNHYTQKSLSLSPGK
light: B1 light
notes: Positions in EU numbering; copies: 2 + 2
B5: anti-CD19 antibody HuAM4G7 IgG1 ^236R/L328R (antibody)
heavy: EVQLVESGGGLVKPGGSLKLSCAASGYTFTSYVMHWVRQAPGKGLEWIGYINPYNDGTKYNEKFQGRVTISSDKSISTAYMELSSLRSEDTAMYYCARGTYYYGTRVFDYWGQGTLVTVSSASTKGPSVFPLAPSSKSTSGGTAALGCLVKDYFPEPVTVSWNSGALTSGVHTFPAVLQSSGLYSLSSVVTVPSSSLGTQTYICNVNHKPSNTKVDKKVEPKSCDKTHTCPPCPAPELLGRGPSVFLFPPKPKDTLMISRTPEVTCVVVDVSHEDPEVKFNWYVDGVEVHNAKTKPREEQYNSTYRVVSVLTVLHQDWLNGKEYKCKVSNKARPAPIEKTISKAKGQPREPQVYTLPPSREEMTKNQVSLTCLVKGFYPSDIAVEWESNGQPENNYKTTPPVLDSDGSFFLYSKLTVDKSRWQQGNVFSCSVMHEALHNHYTQKSLSLSPGK
light: B1 light
notes: also called Fc-KO; FcγR knockout
B6: S239D (antibody, human IgG1, kappa)
heavy: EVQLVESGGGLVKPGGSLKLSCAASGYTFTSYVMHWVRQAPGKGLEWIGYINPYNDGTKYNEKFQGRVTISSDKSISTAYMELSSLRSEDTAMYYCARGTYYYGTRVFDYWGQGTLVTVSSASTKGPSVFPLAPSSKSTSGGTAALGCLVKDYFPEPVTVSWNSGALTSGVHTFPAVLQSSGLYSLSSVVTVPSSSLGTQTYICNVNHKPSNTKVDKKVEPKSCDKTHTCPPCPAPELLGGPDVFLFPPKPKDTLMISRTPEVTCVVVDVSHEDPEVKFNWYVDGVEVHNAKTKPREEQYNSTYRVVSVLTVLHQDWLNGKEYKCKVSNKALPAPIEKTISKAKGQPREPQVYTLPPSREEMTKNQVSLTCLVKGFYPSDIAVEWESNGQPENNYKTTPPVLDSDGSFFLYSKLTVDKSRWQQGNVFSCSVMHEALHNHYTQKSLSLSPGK
light: B1 light
notes: as for B1
B7: anti-CD19 antibody HuAM4G7 IgG1 G236R/L328R (antibody)
heavy: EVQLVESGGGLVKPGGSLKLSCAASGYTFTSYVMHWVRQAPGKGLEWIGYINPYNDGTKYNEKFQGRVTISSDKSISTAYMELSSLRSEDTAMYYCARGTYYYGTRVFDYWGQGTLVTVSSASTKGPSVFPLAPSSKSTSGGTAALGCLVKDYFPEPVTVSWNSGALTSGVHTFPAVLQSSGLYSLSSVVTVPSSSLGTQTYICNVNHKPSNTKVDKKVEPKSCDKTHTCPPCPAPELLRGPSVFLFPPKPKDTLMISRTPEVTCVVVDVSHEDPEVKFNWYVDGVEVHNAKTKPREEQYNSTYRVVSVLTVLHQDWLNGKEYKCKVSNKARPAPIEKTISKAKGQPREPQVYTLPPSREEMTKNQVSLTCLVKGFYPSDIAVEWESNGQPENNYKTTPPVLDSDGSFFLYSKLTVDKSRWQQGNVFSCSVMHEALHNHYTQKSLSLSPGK
light: B1 light
notes: Control knock out variant; Positions in EU numbering; also called Fc-KO; FcγR knockout
B8: anti-CD19 antibody HuAM4G7 IgG1 S239D/S267E (antibody)
heavy: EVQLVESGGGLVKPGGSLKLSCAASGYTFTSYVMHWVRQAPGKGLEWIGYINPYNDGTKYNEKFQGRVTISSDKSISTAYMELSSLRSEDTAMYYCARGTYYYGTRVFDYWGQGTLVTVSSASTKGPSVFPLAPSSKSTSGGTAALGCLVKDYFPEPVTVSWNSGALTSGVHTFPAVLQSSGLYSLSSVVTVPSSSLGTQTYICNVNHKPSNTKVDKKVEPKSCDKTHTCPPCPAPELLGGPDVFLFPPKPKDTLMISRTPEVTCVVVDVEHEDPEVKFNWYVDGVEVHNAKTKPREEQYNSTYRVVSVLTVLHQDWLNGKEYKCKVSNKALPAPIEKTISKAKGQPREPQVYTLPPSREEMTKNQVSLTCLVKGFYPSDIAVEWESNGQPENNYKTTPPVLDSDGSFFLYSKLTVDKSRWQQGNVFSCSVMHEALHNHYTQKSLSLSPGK
light: B1 light
notes: as for B4

Residue numbers refer to the chain shown, from its start. In names and notes the source's numbering stands.

Data on 8 molecules can be found in patent publication US20130315910A1 (Xencor, published 2013).
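Wherever Fold vs WT IgG1 (off-rate) is given: fold improvement over WT IgG1 so higher means slower dissociation than WT.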

T9 sequence (P08637 17-208 F176V): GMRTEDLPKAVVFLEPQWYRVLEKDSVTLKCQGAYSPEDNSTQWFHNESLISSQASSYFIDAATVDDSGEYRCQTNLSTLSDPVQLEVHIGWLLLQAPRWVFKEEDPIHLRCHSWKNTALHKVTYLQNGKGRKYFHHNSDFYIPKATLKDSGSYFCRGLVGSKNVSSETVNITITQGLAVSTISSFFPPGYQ
T8 sequence (P12314 16-288 limits assumed): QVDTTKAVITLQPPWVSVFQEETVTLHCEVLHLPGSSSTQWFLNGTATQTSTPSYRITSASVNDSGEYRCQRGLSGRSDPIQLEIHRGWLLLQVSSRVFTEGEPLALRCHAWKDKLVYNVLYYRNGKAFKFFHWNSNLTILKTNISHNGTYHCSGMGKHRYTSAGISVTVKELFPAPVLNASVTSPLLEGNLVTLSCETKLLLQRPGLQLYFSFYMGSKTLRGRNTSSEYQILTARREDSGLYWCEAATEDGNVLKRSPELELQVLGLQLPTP
T7 sequence (Q8SPW2 17-208): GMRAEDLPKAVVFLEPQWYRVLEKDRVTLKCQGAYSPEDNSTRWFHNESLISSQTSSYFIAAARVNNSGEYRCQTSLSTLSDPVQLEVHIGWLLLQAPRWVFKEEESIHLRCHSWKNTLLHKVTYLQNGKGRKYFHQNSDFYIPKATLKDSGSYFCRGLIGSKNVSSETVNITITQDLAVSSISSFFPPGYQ
T10 sequence (P08637 17-208): as the sequence (P08637 17-208 F176V) above, with V160F counted along it

The first assay deals with T1, mFcγRIIb. Kind of assay: SPR, off-rate.
For B1, the binding result is given as “no binding”.
For B2, the binding result is given as “no binding”.
For B3, the binding result is “no binding”.
On the same count and under the same terms, to B4 belongs “no binding”.

The next assay concerns the target T7, cynoFcγRIIIa (Macaca fascicularis, UniProt Q8SPW2).
T7 construct: extracellular region, C-terminal His- and GST-tag; also called cynomolgus monkey FcγRIIIa
Kind of assay: SPR, off-rate. In general terms: SPR reads the build-up and loss of mass on a sensor chip optically.
For the molecule B1, the binding result is reported as “no binding”.
On the same count and under the same terms, to B2 belongs “no binding”.
Turning to B3, the binding result is recorded as “no binding”.
Same read-out and setting: as for B4, the entry is “no binding”.

The next assay concerns the target T2, mFcγRIV. As to the kind of experiment: SPR, off-rate.
Turning to B1, the binding result was “no binding”.
Consider B2, for which the binding result is “no binding”.
Still for that read-out and setting: to B3 belongs “no binding”.
The same measure, in the same setting: to B4 belongs “no binding”.

A further assay deals with T3, cynoFcγRIIb. As to the kind of experiment: SPR, off-rate.
As to B1, the binding result was “no binding”.
In the case of B2, the binding result was “no binding”.
As to B3, the binding result is “no binding”.
On the same count and under the same terms, to B4 belongs “no binding”.

For the next assay, the target named is T4, human FcγRIIb receptor protein (R&D …). As to the kind of experiment: SPR.
As a reminder, the Kd is the concentration at which binding is half-saturated. Regarding B1, the “Fold vs WT IgG1” value turned out to be 1.54 fold and the Kd was found to be 953 nM.
In the case of B5, the binding result is “no binding”.
In the case of B6, the “Fold vs WT IgG1” value amounted to 3.6 fold and the equilibrium dissociation constant (Kd) came out at 408 nM.
As to B7, the binding result is given as “no binding”.
In the case of B2, the “Fold vs WT IgG1” value is 0.147 fold and binding was characterised by a dissociation constant (Kd) of 10000 nM.
For B3 the same measures were 0.191 fold and 7680 nM.
B4 returned a Kd of 26.6 nM.
Turning to B8, the “Fold vs WT IgG1” value worked out at 111 fold and the Kd was determined as 13.3 nM.

The target of a further assay is T5, human FcγRIIa (131R), His- and …. Kind of assay: SPR.
B1: the “Fold vs WT IgG1” value is 0.758 fold and the affinity, expressed as Kd, was 1130 nM.
In the case of B5, the binding result is given as “no binding”.
As to B6, the “Fold vs WT IgG1” value is 3.73 fold and the equilibrium dissociation constant (Kd) stood at 230 nM.
As to B7, the binding result was “no binding”.
With B2, the “Fold vs WT IgG1” value came to 0.704 fold and the affinity, expressed as Kd, was 1220 nM.
B3: the “Fold vs WT IgG1” value worked out at 0.704 fold and the affinity, expressed as Kd, was 1220 nM.
As to B8, the “Fold vs WT IgG1” value was determined as 120 fold and binding was characterised by a dissociation constant (Kd) of 7.16 nM.

A further assay has as its target T8, human FcγRI receptor protein (R&D Systems) (human, UniProt P12314 16-288).
T8 construct: also called soluble FcγRI; solFcγRI
Kind of assay: SPR.
Turning to B1, the “Fold vs WT IgG1” value came to 0.0211 fold and the Kd is 15.6 nM.
For the molecule B5, the binding result is “no binding”.
On to B6, for which the “Fold vs WT IgG1” value is 3.53 fold and the dissociation constant Kd was found to be 0.0934 nM.
On to B7, for which the binding result is “no binding”.
For the molecule B3, the “Fold vs WT IgG1” value was determined as 0.0108 fold and the Kd came to 30.5 nM.
The molecule B4 came in with an equilibrium dissociation constant (Kd) of 3.71 nM.
In the case of B8, the “Fold vs WT IgG1” value came out at 23.2 fold and the Kd worked out at 0.0142 nM.

Another assay concerns the target T9, human FcγRIIIa (158V), His- and GST-tagged (human, UniProt P08637 17-208).
T9 construct: also called V158 FcγRIIIa; VIIIa; not shown: 6xHis and GST tags of the pTT5 vector
As to the kind of experiment: SPR.
Take B1: the binding result was “no binding”.
Same read-out and setting: as for B5, the entry is “no binding”.
As to B6, the “Fold vs WT IgG1” value was determined as 8.14 fold and the Kd came out at 23.5 nM.
As for B7, the binding result is given as “no binding”.
Still for that read-out and setting: to B3 belongs “no binding”.
Take B4: binding was put at a Kd of 579 nM.
On to B8, for which the “Fold vs WT IgG1” value amounted to 3.74 fold and the dissociation constant (Kd) turned out to be 51.2 nM.

Another assay concerns the target T10, human FcγRIIIa (158F), His- and GST-tagged (human, UniProt P08637 17-208).
T10 construct: also called F158 FcγRIIIa; not shown: 6xHis and GST tags of the pTT5 vector
As to the kind of experiment: SPR.
For B1, the binding result is reported as “no binding”.
Still for that read-out and setting: to B5 belongs “no binding”.
Regarding B6, the “Fold vs WT IgG1” value turned out to be 6.32 fold and the Kd came out at 214 nM.
In the case of B7, the binding result is given as “no binding”.
With B8, the dissociation constant Kd came to 516 nM.

The target of the next assay is T6, human FcγRIIa (131H), His- and …. Kind of assay: SPR.
Turning to B1, the “Fold vs WT IgG1” value worked out at 0.167 fold and the affinity, expressed as Kd, was 3870 nM.
With B5, the binding result is reported as “no binding”.
Take B6: the “Fold vs WT IgG1” value came to 1.1 fold and the dissociation constant Kd worked out at 590 nM.
Turning to B7, the binding result was “no binding”.
Same read-out and setting: to B3 belongs “no binding”.
As for B4, binding was characterised by a dissociation constant (Kd) of 2730 nM.
As for B8, the “Fold vs WT IgG1” value was determined as 1.27 fold and the Kd is 510 nM.

For a further assay, the target named is T1, mFcγRIIb. As to the kind of experiment: SPR.
Take B6: the “Fold vs WT IgG1 (Kd)” value was 2.01 fold and the “Fold vs WT IgG1 (off-rate)” value was found to be 2.91 fold.
The matching figures for B8: 1.75 fold and 7.87 fold.

For the next assay, the target named is T7, cynoFcγRIIIa. As to the kind of experiment: SPR.
B6: the “Fold vs WT IgG1 (Kd)” value is 7.58 fold and the “Fold vs WT IgG1 (off-rate)” value came to 2.33 fold.
The matching figures for B8: 3.88 fold and 1.68 fold.

The next assay has as its target T2, mFcγRIV. Kind of assay: SPR.
As to B6, the “Fold vs WT IgG1 (Kd)” value stood at 2.52 fold and the “Fold vs WT IgG1 (off-rate)” value was determined as 1.91 fold.
The matching figures for B8: 0.726 fold and 1.54 fold.

In a further assay the target is T3, cynoFcγRIIb. Kind of assay: SPR.
For the molecule B6, the “Fold vs WT IgG1 (Kd)” value is 1.64 fold and the “Fold vs WT IgG1 (off-rate)” value was determined as 1.99 fold.
For the molecule B8, the “Fold vs WT IgG1 (Kd)” value was found to be 1.59 fold and the “Fold vs WT IgG1 (off-rate)” value turned out to be 2.53 fold.
